Our source for the mean pulse duration (dashed line of the distribution) values is patent US20210364527A1.

The test has as its target polypeptide with a terminal leucine residue (rest of sequence not given). The test can be described thus: single-molecule dwell time analysis; panel Leu; filtered 0.00s<=dur<=20.00s and magnitude above baseline > 15.0.

For Synechococcus elongatus ClpS2, the mean pulse duration (dashed line of the distribution) was determined as 0.35 s.
